We go through 3 molecules from patent publication US7807384B2, “Low density lipoprotein binding proteins and their use in diagnosing and treating atherosclerosis” (Boston Heart Foundation, Inc., priority 1996, dated 2010).

Data set [1] is described as follows: Body weight and serum lipids of LBP-immunized apo E knockout mice. In kind it is in vivo, mouse. To be noted: P>0.05. Here is the method: (§1) Four week old apo E knockout mice (Jackson Laboratories, Bar Harbor, Me.) were ear tagged, randomly assigned to different cages and weighed. Body weights were determined weekly. Animals were allowed to habituate for 1 week. Normal rodent chow was provided ad libitum and animals were maintained in a 12:12 light:dark cycle. The following four groups of mice were treated with either recombinant LBP proteins (40 μg of recombinant protein/mouse) plus RIBI adjuvant or RIBI adjuvant alone (control group).
Blood samples were analyzed for total cholesterol, HDL cholesterol, and triglyceride concentration with a commercially available total cholesterol and triglycerides assay kits (Sigma; St. Louis Mo.) using an ELISA format. HDL concentration was determined after Apo B containing lipoproteins were precipitated using heparin/MnCl2.
Data were analyzed using T-tests and Wilcoxons.

For data set [2], the system named is apo E knockout mice. In words: Aortic cholesterol content (cholesterol extraction method) in LBP-immunized apo E knockout mice. To be noted: for Arterial Wall Cholesterol: apo E mice. The class given is in vivo, mouse. Here is the method:
(§2) Separate immunization experiments were performed with each of LBP-1, LBP-2, and LBP-J. Immunity was induced by injecting apo E knockout mice with the LBP protein (LBP-1, LBP-2, or LBP-3) together with an RIBI adjuvant (RIBI ImmunoChem Research, Inc., Hamilton, Mont.). Apo E knockout mice (Jackson Laboratories, Bar Harbor, Me.) are hyperlipidemic and thus a model for human atherosclerosis. Apo E knockout mice have high levels of plasma cholesterol and develop naturally-occurring atherosclerotic-like lesions.
as §1
(§3) Apo E knockout mice were sacrificed at 26 weeks of age. The mice were anesthetized with methoxyfluorane and exanguinated via cardiac puncture. A midline thoracotomy was performed, a cannula inserted into the right ventricle and perfusate allowed unrestricted flow via an incision into the right atrium. The mice were perfused with saline, followed by 10% phosphate buffered formalin until fasciculations stopped. At this time, the aorta was exposed and adventitial fat removed in situ. The aorta was then removed from the heart down to the iliac bifurcation and placed in 10% phosphate buffered formalin overnight.
A second analysis was done to measure aortic atherosclerosis by a cholesterol extraction method whereby cholesterol is determined as a unit weight of artery. This method may be more accurate in measuring lesion size than attempting to measure the thickness of many sections. Specifically, the weight of an artery was measured, then the cholesterol was extracted. Aortic cholesterol content was then measured by gas-liquid chromatography. The amount of cholesterol per unit weight of artery was then determined.

In data set [3] the target is T1, LDL (Homo sapiens, UniProt P04114).
T1 construct: LDL was prepared from the plasma of normolipemic donors; from tissue; host or cells: blood plasma of normolipemic donors, density ultracentrifugation
T1 sequence (P04114 28-4563): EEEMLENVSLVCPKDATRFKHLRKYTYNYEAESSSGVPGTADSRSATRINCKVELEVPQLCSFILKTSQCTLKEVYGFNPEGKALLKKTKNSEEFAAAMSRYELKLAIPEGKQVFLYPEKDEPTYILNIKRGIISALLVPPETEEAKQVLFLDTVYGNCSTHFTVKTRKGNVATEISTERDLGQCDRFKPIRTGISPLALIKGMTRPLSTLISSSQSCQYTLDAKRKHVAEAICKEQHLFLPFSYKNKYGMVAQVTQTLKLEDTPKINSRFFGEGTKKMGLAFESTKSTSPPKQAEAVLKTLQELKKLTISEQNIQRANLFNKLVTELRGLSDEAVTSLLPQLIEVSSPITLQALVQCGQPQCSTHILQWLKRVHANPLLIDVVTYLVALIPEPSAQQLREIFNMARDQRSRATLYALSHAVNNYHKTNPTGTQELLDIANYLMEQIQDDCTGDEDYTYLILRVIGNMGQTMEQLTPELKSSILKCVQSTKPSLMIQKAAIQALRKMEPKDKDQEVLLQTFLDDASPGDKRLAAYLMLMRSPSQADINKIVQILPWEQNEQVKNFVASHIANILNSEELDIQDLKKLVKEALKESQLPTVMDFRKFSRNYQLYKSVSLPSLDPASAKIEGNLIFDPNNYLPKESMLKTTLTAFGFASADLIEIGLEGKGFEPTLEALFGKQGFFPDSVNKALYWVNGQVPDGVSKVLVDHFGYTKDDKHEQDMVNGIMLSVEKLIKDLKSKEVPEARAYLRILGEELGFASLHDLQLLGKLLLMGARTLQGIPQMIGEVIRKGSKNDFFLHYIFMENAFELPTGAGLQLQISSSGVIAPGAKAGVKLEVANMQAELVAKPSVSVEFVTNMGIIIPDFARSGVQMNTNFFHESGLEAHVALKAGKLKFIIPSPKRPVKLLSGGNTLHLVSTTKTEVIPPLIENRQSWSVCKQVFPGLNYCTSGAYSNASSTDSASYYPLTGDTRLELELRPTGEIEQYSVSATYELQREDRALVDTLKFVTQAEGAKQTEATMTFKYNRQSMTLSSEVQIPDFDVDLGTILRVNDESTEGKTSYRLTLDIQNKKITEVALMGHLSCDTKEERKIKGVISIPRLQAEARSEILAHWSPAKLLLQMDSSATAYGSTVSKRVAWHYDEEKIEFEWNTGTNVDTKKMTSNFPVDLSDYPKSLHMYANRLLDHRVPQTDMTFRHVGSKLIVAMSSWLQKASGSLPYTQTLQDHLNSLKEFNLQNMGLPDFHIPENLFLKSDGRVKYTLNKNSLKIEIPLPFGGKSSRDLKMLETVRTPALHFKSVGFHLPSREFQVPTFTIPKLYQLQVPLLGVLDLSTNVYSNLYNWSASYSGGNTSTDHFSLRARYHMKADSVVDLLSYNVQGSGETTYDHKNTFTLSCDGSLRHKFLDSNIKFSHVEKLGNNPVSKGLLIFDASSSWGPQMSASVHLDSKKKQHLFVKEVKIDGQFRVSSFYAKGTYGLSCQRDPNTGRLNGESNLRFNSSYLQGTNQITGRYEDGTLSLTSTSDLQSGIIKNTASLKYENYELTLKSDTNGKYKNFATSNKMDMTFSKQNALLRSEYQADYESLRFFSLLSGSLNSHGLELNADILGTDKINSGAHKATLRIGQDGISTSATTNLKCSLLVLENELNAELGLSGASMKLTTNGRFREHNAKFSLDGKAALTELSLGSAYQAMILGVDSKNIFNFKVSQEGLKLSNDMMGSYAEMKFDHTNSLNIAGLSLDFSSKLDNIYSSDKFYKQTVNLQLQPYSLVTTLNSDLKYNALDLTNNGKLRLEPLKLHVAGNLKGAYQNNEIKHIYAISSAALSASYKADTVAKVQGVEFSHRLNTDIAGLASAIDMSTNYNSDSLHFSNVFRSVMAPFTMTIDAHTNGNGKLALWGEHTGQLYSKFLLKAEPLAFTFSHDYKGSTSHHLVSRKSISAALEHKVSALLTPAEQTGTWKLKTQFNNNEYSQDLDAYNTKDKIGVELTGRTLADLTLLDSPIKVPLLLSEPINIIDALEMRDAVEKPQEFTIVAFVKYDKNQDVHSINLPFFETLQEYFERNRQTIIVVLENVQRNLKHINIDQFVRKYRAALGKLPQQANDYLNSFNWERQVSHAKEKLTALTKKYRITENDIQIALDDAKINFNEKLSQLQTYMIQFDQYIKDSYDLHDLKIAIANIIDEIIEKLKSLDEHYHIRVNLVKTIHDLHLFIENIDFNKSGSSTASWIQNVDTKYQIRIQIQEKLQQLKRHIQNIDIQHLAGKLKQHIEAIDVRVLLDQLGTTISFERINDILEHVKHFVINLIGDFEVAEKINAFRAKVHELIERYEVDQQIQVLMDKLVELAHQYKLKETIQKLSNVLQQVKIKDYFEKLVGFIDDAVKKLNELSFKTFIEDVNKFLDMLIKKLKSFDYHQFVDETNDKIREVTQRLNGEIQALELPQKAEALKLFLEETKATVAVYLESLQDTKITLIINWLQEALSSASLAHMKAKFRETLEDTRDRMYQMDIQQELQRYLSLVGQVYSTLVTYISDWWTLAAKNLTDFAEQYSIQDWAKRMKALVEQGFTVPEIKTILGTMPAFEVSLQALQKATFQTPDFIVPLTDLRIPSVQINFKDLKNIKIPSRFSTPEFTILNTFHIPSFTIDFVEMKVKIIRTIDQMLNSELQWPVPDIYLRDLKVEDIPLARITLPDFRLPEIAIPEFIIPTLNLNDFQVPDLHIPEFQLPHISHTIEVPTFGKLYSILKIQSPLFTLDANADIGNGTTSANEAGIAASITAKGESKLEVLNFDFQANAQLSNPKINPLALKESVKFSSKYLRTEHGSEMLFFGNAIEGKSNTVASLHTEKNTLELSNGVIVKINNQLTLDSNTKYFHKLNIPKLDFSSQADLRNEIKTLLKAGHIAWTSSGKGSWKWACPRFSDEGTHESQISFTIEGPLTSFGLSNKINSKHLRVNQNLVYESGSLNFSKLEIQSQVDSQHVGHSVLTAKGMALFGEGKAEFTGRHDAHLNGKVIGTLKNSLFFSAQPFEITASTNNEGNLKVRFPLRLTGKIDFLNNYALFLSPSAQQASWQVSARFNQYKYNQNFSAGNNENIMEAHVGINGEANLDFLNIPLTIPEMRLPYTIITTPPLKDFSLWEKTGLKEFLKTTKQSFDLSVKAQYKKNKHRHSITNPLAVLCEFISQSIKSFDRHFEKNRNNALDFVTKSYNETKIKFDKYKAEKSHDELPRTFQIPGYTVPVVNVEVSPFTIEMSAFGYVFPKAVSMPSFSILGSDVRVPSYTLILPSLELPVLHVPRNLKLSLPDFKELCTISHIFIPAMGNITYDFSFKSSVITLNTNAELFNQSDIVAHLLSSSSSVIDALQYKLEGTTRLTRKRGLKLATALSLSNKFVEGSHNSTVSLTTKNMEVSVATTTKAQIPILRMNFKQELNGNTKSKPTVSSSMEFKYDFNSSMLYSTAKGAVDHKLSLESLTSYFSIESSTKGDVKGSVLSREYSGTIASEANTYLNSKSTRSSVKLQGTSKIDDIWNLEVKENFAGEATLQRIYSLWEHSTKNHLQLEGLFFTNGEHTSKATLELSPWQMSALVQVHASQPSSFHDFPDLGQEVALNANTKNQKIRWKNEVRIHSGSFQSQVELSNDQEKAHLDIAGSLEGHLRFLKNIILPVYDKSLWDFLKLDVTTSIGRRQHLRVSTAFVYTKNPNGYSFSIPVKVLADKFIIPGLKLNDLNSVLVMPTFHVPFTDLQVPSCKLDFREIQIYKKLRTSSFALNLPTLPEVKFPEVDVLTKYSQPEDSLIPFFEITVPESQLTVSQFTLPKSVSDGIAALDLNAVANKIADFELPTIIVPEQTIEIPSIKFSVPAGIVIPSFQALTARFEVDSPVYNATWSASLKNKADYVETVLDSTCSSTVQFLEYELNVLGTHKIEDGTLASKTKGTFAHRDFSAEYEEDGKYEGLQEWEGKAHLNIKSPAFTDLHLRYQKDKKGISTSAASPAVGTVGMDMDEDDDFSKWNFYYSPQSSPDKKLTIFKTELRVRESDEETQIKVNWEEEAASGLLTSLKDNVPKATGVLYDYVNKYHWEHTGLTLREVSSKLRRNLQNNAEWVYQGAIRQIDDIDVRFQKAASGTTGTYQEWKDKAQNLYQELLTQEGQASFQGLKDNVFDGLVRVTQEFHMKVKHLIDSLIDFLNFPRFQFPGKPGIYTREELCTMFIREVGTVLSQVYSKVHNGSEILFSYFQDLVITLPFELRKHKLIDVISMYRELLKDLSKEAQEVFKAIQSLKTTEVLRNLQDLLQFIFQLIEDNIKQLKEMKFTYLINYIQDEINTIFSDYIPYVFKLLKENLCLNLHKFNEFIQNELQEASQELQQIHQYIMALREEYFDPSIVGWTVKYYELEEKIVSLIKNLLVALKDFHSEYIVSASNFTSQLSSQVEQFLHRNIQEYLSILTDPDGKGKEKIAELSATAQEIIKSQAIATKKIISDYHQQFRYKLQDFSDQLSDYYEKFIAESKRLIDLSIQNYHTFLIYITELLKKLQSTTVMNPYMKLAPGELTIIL
Description: Affinity coelectrophoresis (ACE) assay of LBP binding to LDL. To be noted: LDL 540 to 14 nM cast in gel. Here is the method: (§4) Analysis of the affinity and specificity of recombinant rabbit LBP-1, LBP-2 or LBP-3 binding to LDL was carried out using the principle of affinity electrophoresis (Lee and Lander, Proc. Natl. Acad. Sci. USA 88:2768-2772 (1991)). Melted agarose (1%; 65° C.) was prepared in 50 mM sodium MOPS, pH 7.0; 125 mM sodium acetate, 0.5% CHAPS. A teflon comb consisting of nine parallel bars (45×4×4 mm/3 mm spacing between bars) was placed onto GelBond film (FMC Bioproducts, Rockland, Me.) fitted to a plexiglass casting tray with the long axis of the bars parallel to the long axis of the casting tray. A teflon strip (66×1×1 mm) was placed on edge with the long axis parallel to the short axis of the casting tray, at a distance of 4 mm from the edge of the teflon comb. Melted agarose (>65° C.) was then poured to achieve a height of approximately 4 mm. […] LDL or HDL samples were prepared in gel buffer (50 mM sodium MOPS, pH 7.0, 125 mM sodium acetate) at twice the desired concentration. Samples were then mixed with an equal volume of melted agarose (in 50 mM MOPS, pH 7.0; 125 mM sodium acetate; 50° C.), pipetted into the appropriate rectangular wells and allowed to gel. The binding affinity and specificity of LBP-1 and LBP-3 was tested using several concentrations of LDL (540 to 14 nM) and HDL (2840177 nM). A constant amount (0.003 nM-0.016 nM) of ^125I-labeled LBP-1, LBP-2 or LBP-3 (suspended in 50 mM sodium MOPS, pH 7.0; 125 mM sodium acetate; 0.5% bromophenol blue; 6% (wt/vol) sucrose) was loaded into the slot. Gels were electrophoresed at 70 v/2 hr/20° C. At the end of the run, the gels were air dried and retardation profiles were visualized by exposure of X-ray films to the gels overnight at −70° C., with intensifying screens.
Rabbit and human LBP-2 contain a long stretch of acidic amino acids at the amino terminal (rabbit LBP-2 amino acid residues 338 through 365 and human LBP-2 amino acid residues 329 through 354). […]

For data set [4], the target named is T1, LDL. Description: ACE competition: cold LBP versus radiolabeled LBP binding to LDL. To be noted: fixed cold LDL and radiolabeled LBP, increasing cold recombinant LBP. Here is the method: Competition studies were carried out using fixed concentrations of cold LDL and radiolabeled LBP-1 and increasing amounts of cold recombinant LBP-1 (6-31 μM). The ACE assay samples and gel were prepared as described herein.
Competition studies using fixed concentrations of cold LDL and clone 26 derived radiolabeled LBP-2 and increasing concentrations of cold recombinant LBP-2/clone 26 and LBP-a/clone 45 were carried out.

Another data set concerns HDL. Description: Affinity coelectrophoresis (ACE) assay of LBP binding to HDL. The arrangement: species or system human. To be noted: HDL cast in gel. Here is the method:
as §4, with “A constant amount (0.003 nM-0.016 nM) of ^125I-labeled LBP-1, LBP-2 or LBP-3 (suspended in 50 mM sodium MOPS, pH 7.0; 125 mM sodium acetate; 0.5% bromophenol blue; 6% (wt/vol) sucrose) was loaded into the slot. Gels were electrophoresed at 70 v/2 hr/20° C. At the end of the run, the gels were air dried and retardation profiles were visualized by exposure of X-ray films to the gels overnight at −70° C., with intensifying screens.” left out

Data set [5] deals with apo E knockout mice. Description: Aortic lesion area (Sudan IV staining) in LBP-immunized apo E knockout mice. In kind it is in vivo, mouse. To be noted: for Effect of immunization on lesions / lesion area: apo E knockout mice; for Lesion Area % Coverage: apo E mice, 26 weeks of age, control 9.40. Here is the method: as §2, §1, §3
The aorta was stained as follows: after a brief 70% ethanol rinse, it was immersed in a filtered solution of 0.5% (weight/volume) Sudan IV in 35% ethanol/50% acetone with continuous shaking for 10 minutes at room temperature. Unbound dye was removed by incubating the aorta in an 80% ethanol solution with shaking until the background color was clear. The vessel was then rinsed in distilled water, placed in physiological saline and opened longitudinally from the aortic arch down to the iliac bifurcation. The vessel was pinned out and photographed. Photographs were then digitized using an Astra 1200S scanner (UMAX Technologies Inc., Freemont, Calif.) and a commercially available graphics program (Canvas; Deneba Software, Miami Fla.). Total and lesion areas were determined using the signal processing toolbox of MATLAB (The Mathworks Inc., Natick, Mass.). Percent involvement was calculated by dividing lesion area by total area.

Data set [6] has as its system LDL receptor negative knockout mice. In words: Lesions in LBP-immunized LDL receptor negative knockout mice. To be noted: P>0.05. The class given is in vivo, mouse.
Data set [7] deals with ballooned deendothelialized rabbit aorta. In words: Radiolabeled LDL accumulation in ballooned deendothelialized abdominal aorta after active immunization. The class given is in vivo. To be noted: immunized with RIBI adjuvant; corrected for dosage and percent reendothelialization; 24 hr after 125I-LDL. Here is the method:
Immunity was induced in male New Zealand White rabbits (Hazelton Research Products, Denver, Pa.) as follows: A mixture of purified human recombinant LBP-2 or BHF-1 peptide (1 ml; 1 mg) and RIBI adjuvant (RIBI ImmunoChem Research, Inc., Hamilton, Mont.) was injected subcutaneously at 2-5 sites along the dorsal thoracic and abdominal regions of the rabbits. Blood was collected by venipuncture on days 1 (preimmune bleeding), 35, 63, and 91. Booster injections were administered on days 28 (500 μg; SC), 56 (250 μg; SC), and 84 (125 μg; SC).
On day 93, the abdominal aorta of immunized and control rabbits was deendothelialized using a Fogarty number 4 embolectomy catheter (Chang et al., Arteriosclerosis and Thrombosis 12:1088-1098 (1992)). Four weeks after ballooning, rabbits received a bolus injection of ^125I-labeled LDL (1 ml; i.v.). […] Blood samples were centrifuged for 30 min at 2000 rpm ([…]) and total activity present in the serum was determined using a Gamma counter. Total TCA precipitable counts were determined by addition of TCA to the serum to a final concentration of 10% followed by incubation for 10 min at 4° C. Serum samples were then centrifuged (2000 rpm; 30 min; […]) and total activity present in the supernate was determined. TCA precipitable counts were calculated by subtraction: total soluble counts minus counts present in the supernate after TCA precipitation. […]

B1: LBP-2: rabbit recombinant LBP-2 clone 26 (6-His tag), contains the acidic region (protein)
chain: PPPPQQPQPPPEGGAARAGGPARPVSLREVVRYLGGSSGAGGRLTRGRVQGLLEEEAAARGRLERTRLGALALPRGDRPGRAPPAASARAARNKRAGEERVLEKEEEEEEEEDDEDDDDDVVSEGSEVPESDRPAGAQHHQLNGGERGPQTAKERAKEWSLCGPHPGQEEGRGPAAGSGTRQVFSMAALSKEGGSASSTTGPDSPSPVPLPPGKPALPGADGTPFGCPAGRKEKPADPVEWTVMDVVEYFTEAGFPEQATAFQEQEIDGKSLLLMQRTDVLTGLSIRLGPALKIYEHHIKVLQQGHFEDDDPEGFLG
modifications: left off: small tags and cut ends
notes: rabbit recombinant LBP-2 clone 26 (6-His tag), contains the acidic region
As for B1, in data set [1], the “Effect of immunization on body weight” value is given as “did not have a significant effect”. The “Effect of immunization on arterial wall cholesterol content” value in the data set with apo E knockout mice [2] (apo E knockout mice, once outliers were deleted) is recorded as “significant effect”. In addition, the “Arterial Wall Cholesterol” value in the data set on apo E knockout mice [2] (26 weeks of age, control 6.33) worked out at 3.28 ug cholesterol/mg aorta; in the data set with apo E knockout mice [2] (outliers deleted), 1.83 ug cholesterol/mg aorta. The “Retardation of radiolabeled LBP migration through the gel by LDL” value with LDL [3] is recorded as “concentration-dependent, saturable manner”; with LDL [3] (listed as clone 26), “concentration-dependent, saturable, manner”. Also, the “Inhibition by cold LBP of radiolabeled LBP binding to LDL” value with LDL [4] is “inhibited binding”. The “Retardation of radiolabeled LBP migration by HDL” value with HDL is reported as “did not retard”. The “Effect of immunization on lesions / lesion area” value in the data set on apo E knockout mice [5] is on record as “significant effect”. Also, the “Lesion Area % Coverage” value with apo E knockout mice [5] was 6.01%.

B2: LBP-3: rabbit recombinant LDL binding protein LBP-3 (6-His tag), SEQ ID NO: 5 (protein, listed as Oryctolagus cuniculus)
chain: MKNQDKKNGAAKQPNPKSSPGQPEAGAEGAQGRPGRPAPAREAEGASSQAPGRPEGAQAKTAQPGALCDVSEELSRQLEDILSTYCVDNNQGAPGEDGVQGEPPEPEDAEKSRAYVARNGEPEPGTPVVNGEKETSKAEPGTEEIRTSDEVGDRDHRRPQEKKKAKGLGKEITLLMQTLNTLSTPEEKLAALCKKYAELLEEHRNSQKQMKLLQKKQSQLVQEKDHLRGEHSKAILARSKLESLCRELQRHNRSLKEEGVQRAREEEEKRKEVTSHFQMTLNDIQLQMEQHNERNSKLRQENMELAERLKKLIEQYELREEHIDKVFKHKDLQQQLVDAKLQQAQEMLKEAEERHQREKDFLLKEAVESQRMCELMKQQETHLKQQLALYTEKFEEFQNTLSKSSEVFTTFKQEMEKMTKKIKKLEKETTMYRSRWESSNKALLEMAEEKTLRDKELEGLQVKIQRLEKLCRALQTERNDLNKRVQDLSAGGQGPVSDSGPERRPEPATTSKEQGVEGPGAQVPNSPRATDASCCAGAPSTEASGQTGPQEPTTATA
modifications: 6-His tag
In the case of B2, the “Effect of immunization on body weight” value in data set [1] is “did not have a significant effect”. The “Arterial Wall Cholesterol” value in the data set with apo E knockout mice [2] (26 weeks of age, control 6.33) is 4.48 ug cholesterol/mg aorta. Further, the “Retardation of radiolabeled LBP migration through the gel by LDL” value with LDL [3] is on record as “concentration-dependent, saturable manner”. The “Inhibition by cold LBP of radiolabeled LBP binding to LDL” value with LDL [4] is “inhibited binding”. For the same molecule, in the data set with HDL, the “Retardation of radiolabeled LBP migration by HDL” value is “did not retard”. Further, in the data set with apo E knockout mice [5], the “Effect of immunization on lesions / lesion area” value is listed as “did not have a significant effect” and the “Lesion Area % Coverage” value is given as 7.14%. In addition, the “Effect of immunization on lesions” value in data set [6] is “did not have a significant effect”.

B3: recombinant human LBP-2: purified human recombinant LBP-2 used as immunogen with RIBI adjuvant (protein)
chain: EERVLEKEEEEDDDEDEDEEDDVSEGSEVPESDRPAGAQHHQLNGERGPQSAKERVKEWTPCGPHQGQDEGRGPAPGSGTRQVFSMAAMNKEGGTASVATGPDSPSPVPLPPGKPALPGADGTPFGCPPGRKEKPSDPVEWTVMDVVEYFTEAGFPEQATAFQEQEIDGKSLLLMQRTDVLTGLSIRLGPALKIYEHHIKVLQQGHFEDDDPDGFLG
With B3, the “Accumulation of radiolabeled LDL in ballooned abdominal aorta versus nonimmune-ballooned rabbits” value in data set [7] is on record as “lower accumulation”.
